± gives the standard deviation of the averaged measurements.
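Also: PSI is a weighted mean of sequencing reads over stability bins, variants kept only with over 10 reads, mCherry proximal and sfGFP distal, peptide attached via GGGS linker.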

For the data set, the system named is Saccharomyces cerevisiae. Nature of the data set: protein stability index of tFT-peptide fusion (C-terminal peptide) (PSI (0-1 scale)); higher = more stable (slower turnover). As to conditions: genetic background: wild type; temperature: 30 C.
Turning to LFRRVASILPRD, the protein stability index was found to be 0.668 ± 0.013.
Sequence LFSCVFFLCLNF yielded a protein stability index of 0.512 ± 0.0074.
Then LFTDIQAPSVKH, with 0.788 ± 0.18; and LFVLSLHLPCFG, with 0.498 ± 0.02; and LFVSPRPFRSVL, with 0.7495 ± 0.0063.
To LFWFSRVVCMSF belongs 0.564 ± 0.048; to LFYFDTWFFPPP, 0.762 ± 0.097.
To LFYVNIPTQFVR belongs 0.564 ± 0.014; to LGCLVGVRFLGF, 0.642 ± 0.032.
Regarding LGDGAVVAEESG, the protein stability index was determined as 0.642 ± 0.062.
Then LGDLVFGLSVWL, with 0.684 ± 0.035.
To LGFLLSLVCLLG belongs 0.532 ± 0.015; to LGGEVDLGPARG, 0.662 ± 0.092; to LGGTRRVGLALV, 0.685 ± 0.057.
To LGGWWVSRVGEP belongs 0.732 ± 0.037; to LGKGRYNIKINK, 0.695 ± 0.016; to LGLPSSLGPSDF, 0.682 ± 0.011.
As for LGLRSGQGPVTL, the protein stability index turned out to be 0.7746 ± 0.00092.
Then LGLRSRIYMLVD, with 0.664 ± 0.0083; and LGLSTVKLEVPW, with 0.7731 ± 0.0016.
To LGMGWGSGLERW belongs 0.826 ± 0.12.
Then LGPRVGDPDGRF, with 0.742 ± 0.019; and LGPSPQRLRYPT, with 0.65 ± 0.035; and LGSILSSSSSRL, with 0.699 ± 0.018.
Take LGSSQVGLVRRV: the protein stability index amounted to 0.663 ± 0.011.
Then LGSVLSLVRFGR, with 0.677 ± 0.016; and LGVSVVEPGRVR, with 0.702 ± 0.04; and LGVVCVGWLGGL, with 0.664 ± 0.03.
To LGWDGSRRRPGL belongs 0.727 ± 0.14; to LHAGHSNSVLAF, 0.601 ± 0.0075; to LHCKDWGHESRD, 0.6838 ± 0.0057.
For LHHLASPSPPTP, the protein stability index worked out at 0.797 ± 0.015.
Then LHMVSCFLCSLW, with 0.564 ± 0.018; and LHPPTHPQLPSS, with 0.7214 ± 0.0059.
In the case of LHRRIPFPTQAL, the protein stability index is 0.567 ± 0.017.
Take LHSIPLNPYLIA: the protein stability index was determined as 0.712 ± 0.16.
To LHSRKSDFSVIA belongs 0.656 ± 0.046; to LIDYGLDVSLSL, 0.703 ± 0.015.
For LIFPPLPPLPPR, the protein stability index worked out at 0.754 ± 0.01.
Then LIISDVTGFSHL, with 0.6576 ± 0.0029; and LIKKSFYMKIIK, with 0.59 ± 0.057; and LIPAASLSPLAC, with 0.562 ± 0.013.
To LIPIRGESTFRF belongs 0.779 ± 0.11; to LIPLPPPPLPPP, 0.623 ± 0.09.
Then LIPTIRRKHRAT, with 0.625 ± 0.014.
LIRVSPDVNITA had a protein stability index of 0.622 ± 0.066.
Then LIYKRQPAFRCG, with 0.632 ± 0.023.
To LKAACAKRGVLS belongs 0.679 ± 0.085; to LKFRETHIRNHP, 0.701 ± 0.05.
Then LKPMSRKSLRSM, with 0.715 ± 0.022; and LKRPDVTKKKSI, with 0.62 ± 0.077; and LLAVLSPAAPLP, with 0.696 ± 0.058.
LLCFRLFPALTP came in with a protein stability index of 0.6228 ± 0.0057.
To LLCHAGRTPRPP belongs 0.646 ± 0.013; to LLCPSPPSDIPP, 0.661 ± 0.016.
Then LLDGASALIFGG, with 0.617 ± 0.057; and LLDSLCEKTFRS, with 0.677 ± 0.032; and LLESTAHGKGIR, with 0.683 ± 0.022.
Then LLFPFSLHLSPP, with 0.765 ± 0.066.
With LLFSPTHEPRIW, the protein stability index was 0.734 ± 0.075.
To LLFSPTRVFLRY belongs 0.49 ± 0.053; to LLFSSPPARMCP, 0.786 ± 0.1.
Then LLGHSTPAHVFL, with 0.7129 ± 0.0031; and LLGKVAYFFMFG, with 0.631 ± 0.025.

Values taken from the supplement of paper PMC10724198.
